Ten molecules from patent US8722622B2, “FGF21 conjugates and anti-diabetic uses thereof” (COVX Technologies Ireland, Limited, priority 2010, dated 2014) can be followed below.

Usually EC50 stands for the midpoint of the concentration-response curve.

Residue numbers refer to the chain shown, from its start. Numbers in names are those of the source. Where “and” joins values, the source holds several entries; their conditions need not be identical. Equal values may be shown once.

B1: FGF21ΔH-A129C: FGF21 cysteine mutant, SEQ ID NO:9 (protein, listed as Homo sapiens)
chain: PIPDSSPLLQFGGQVRQRYLYTDDAQQTEAHLEIREDGTVGGAADQSPESLLQLKALKPGVIQILGVKTSRFLCQRPDGALYGSLHFDPEACSFRELLLEDGYNVYQSEAHGLPLHLPGNKSPHRDPCPRGPARFLPLPGLPPALPEPPGILAPQPPDVGSSDPLSMVGPSQGRSPSYAS
B2: FGF21ΔH-Knull-P2: FGF21 lysine-null mutant, SEQ ID NO:22 (protein, listed as Homo sapiens)
chain: B1 chain with K55R, K58R, K68R, K121R, C128A, L145P, P146L
B3: FGF21ΔH-Knull-S181K: FGF21 lysine-null mutant with S181K, SEQ ID NO:24 (protein, listed as Homo sapiens)
chain: B1 chain with K55R, K58R, K68R, K121R, C128A, L145P, P146L, S180K
B4: FGF21ΔH-H125C: FGF21 cysteine mutant, SEQ ID NO:6 (protein, listed as Homo sapiens)
chain: B1 chain with H124C, C128A
B5: FGF21ΔH-Knull-H1K: FGF21 lysine-null mutant with H1K, SEQ ID NO:23 (protein, listed as Homo sapiens)
chain: KPIPDSSPLLQFGGQVRQRYLYTDDAQQTEAHLEIREDGTVGGAADQSPESLLQLRALRPGVIQILGVRTSRFLCQRPDGALYGSLHFDPEACSFRELLLEDGYNVYQSEAHGLPLHLPGNRSPHRDPAPRGPARFLPLPGLPPALPEPPGILAPQPPDVGSSDPLSMVGPSQGRSPSYAS
B6: FGF21ΔH-L86C: FGF21 cysteine mutant, SEQ ID NO:14 (protein, listed as Homo sapiens)
chain: B1 chain with L85C, C128A, L145P, P146L
B7: L2-FGF21ΔH-A129C: Linker-2 conjugated to FGF21ΔH-A129C protein (Table 4; Table 5 row L2) (conjugate, UniProt Q9NSA1 29-209, looked up, variant H1* A129C)
Fibroblast growth factor 21: B1 chain
modifications: Linker-2 attached
B8: L3-FGF21ΔH-A129C: Linker-3 conjugated to FGF21ΔH-A129C protein (Table 4; Table 5 row L3) (conjugate, UniProt Q9NSA1 29-209, looked up, variant H1* A129C)
Fibroblast growth factor 21: B1 chain
modifications: Linker-3 attached
B9: L4-FGF21ΔH-A129C: Linker-4 conjugated to FGF21ΔH-A129C protein (Table 4; Table 5 row L4) (conjugate, UniProt Q9NSA1 29-209, looked up, variant H1* A129C)
Fibroblast growth factor 21: B1 chain
modifications: Linker-4 attached
B10: L1-FGF21ΔH-A129C: Linker-1 conjugated to FGF21ΔH-A129C protein (Table 4; Table 5 row L1) (conjugate, UniProt Q9NSA1 29-209, looked up, variant H1* A129C)
Fibroblast growth factor 21: B1 chain
modifications: Linker-1 attached

In one data set the test system is Glut1 mRNA expression in differentiated 3T3-L1 adipocytes. Put plainly: Glut1 Taqman assay. The data set is classed as cell-based. Particulars: 3T3-L1 adipocytes, 6 hrs, Taqman quantitative real-time PCR; read-out: Glut1 RNA expression EC50. As for the experimental part: Differentiated 3T3-L1 adipocytes were used to measure the Glut1 mRNA expression by qPCR method. Overnight serum starved day 10-14 differentiated 3T3-L1 adipocytes were treated with compounds for 6 hrs. Total RNA was extracted from these cells, and Glut1 and GAPDH mRNA expression was measured using a Quantitect Probe RT-PCR kit and running a quantitative real time PCR reaction in a Taqman machine (Applied Biosystems®). The bioactivity of the compounds was determined by a fold change in Glut1 mRNA levels normalized by the GAPDH mRNA levels from each sample. EC50 values as measurements of the potency of the compounds were obtained from the dose response curves in the assay.
3T3-L1 adipocytes were seeded at day 8 in 24-well tissue culture plates (Falcon®, Cat#353047), and incubated in DMEM complete medium (10% FBS, 2 mM L-glutamine, 1% P/S) at 37° C., 5% CO2. […] The medium was aspirated, and then RNA extracted from the cells using the RNeasy mini Kit according to the manufacturer's instructions. RNA was measured at A260 nm using the Spectramax® Plus spectrophotometer.
On the technique in general: In qPCR the cycle at which signal appears reflects the starting amount.
Take B1: the EC50 was 16 nM.

Staying with this data set, now noted: 6 hrs.
As for B1, the “Glut1 induction in 3T3-L1 adipocytes” value is “dose-dependent Glut1 induction”.

Staying with this data set, now noted: differentiated 3T3-L1 adipocytes, 6 hrs; read-out: EC50 in Glut1 Taqman assay.
Regarding B2, the EC50 was 1.2 nM.

As for B3, the concentration giving a half-maximal response (EC50) is 7.5 nM.

As to B1, the EC50 is 1.4 nM.

For B4, the EC50 stood at 1.2 nM.

Turning to B5, the EC50 is 6.4 nM and 4.3 nM.

A further data set has as its system Differentiated 3T3-L1 adipocytes. Description: Glucose uptake assay. The data set is classed as cell-based. The settings on record: unconjugated protein; n in brackets. As for the experimental part:
Differentiated 3T3-L1 adipocytes were treated with compounds in the absence of serum for 24 hrs. Cells were then incubated with ^14C-2-deoxyglucose for 1 hr and glucose uptake into the cells was quantitated in Wallac 1450 MicroBeta (Trilux) instrument. Glucose uptake was expressed in counts per min (CPM). EC50 values as measurements of the potency of the compounds were obtained from the dose response curves in the assay.
B6: the midpoint of the response, the EC50, lay at 62 nM.

Test system in the next data set: not given
Test: not given
On the set-up: species or system Swiss-Webster mice. The settings on record: mouse, in vivo, iv. As for the experimental part:
The PK of FGF21 antibody conjugates were examined in mice after IV or SC administration. […] Antibody conjugates concentrations in serum were determined using an ELISA which captured the FGF21 portion of the antibody conjugates through a monoclonal anti-hFGF21 antibody bound to a 96-well plate. FGF21 antibody conjugates bound to the plate were detected through an anti-hFc monoclonal antibody, and concentrations were determined using a standard curve of the PK dosing solution diluted into serum-containing assay buffer. SC bioavailability was calculated as the ratio of the area-under the curve (AUC) of the SC serum concentration profile divided by the AUC of the IV serum concentration profile.
The molecule B5 gave an IV half-life of 16 h.

Staying with this data set, now noted: mouse, in vivo, sc.
Consider B5, for which the SC bioavailability was found to be 51% and the SC half-life turned out to be 11 h.

Test system in another data set: not listed separately
Description: Stability of linkers L1-L4 conjugated to FGF21 (LC-MS). The data set is classed as physicochemical. The settings on record: +4° C., 0 hrs. As for the experimental part:
The following experiment was performed to investigate the chemical stability over 2 weeks of the four linkers upon conjugation to FGF21: each linker was conjugated to FGF21, placed at +4° C. storage conditions, and aliquots were removed and quenched by freezing at specific time points, and linker stability was monitored by LCMS analysis.
The four linkers were dissolved in DMSO from lyophilized stock material. […] L1 was reacted with protein for 30 mins; L2, L3 and L4 were reacted for 2 hrs. The conjugation reaction was quenched by removal of excess linkers through size-exclusion resin. Conjugated FGF21ΔH-A129C protein was placed at +4° C. for stability storage. […] Analysis of linker stability was performed by LC-MS analysis to determine the relative amount of unconjugated protein, protein+linker conjugation, and single and double hydrolysis events of the conjugated protein+linker.
Linker hydrolysis is the critical analytical variable in this experiment. Hydrolysis was monitored by observing the subsequent addition of H2O to the FGF21-linker complex. A single addition of H2O, +(1) H2O, likely indicates the hydrolysis of the active AZD group that is present on all 4 linkers. The addition of a second H2O molecule, +(2) H2O, is a strong indicator of hydrolysis (eg—chemical instability) in the linker. L1 is particularly susceptible because of the presence of a maleimide functional group.
Turning to B7, the “1 linker (protein+linker)” value was 45%, the “+(1) H2O” value was 27% and the “+(2) H2O” value was found to be 6%.

For B8, the “1 linker (protein+linker)” value is reported as 45%, the “+(1) H2O” value turned out to be 30% and the “+(2) H2O” value is reported as 6%.

Consider B9, for which the “1 linker (protein+linker)” value came to 46%, the “+(1) H2O” value is given as 28% and the “+(2) H2O” value is 6%.

Take B10: the “1 linker (protein+linker)” value is listed as 49%, the “+(1) H2O” value was determined as 30% and the “+(2) H2O” value is 8%.

Staying with this data set, now noted: +4° C., 0 hrs; % of total measured protein.
Consider B7, for which the “0 linker (unconjugated protein)” value was 22%.

On to B8, for which the “0 linker (unconjugated protein)” value worked out at 19%.

For the molecule B9, the “0 linker (unconjugated protein)” value is recorded as 20%.

With B10, the “0 linker (unconjugated protein)” value worked out at 13%.

Staying with this data set, now noted: +4° C., 24 hrs.
With B7, the “0 linker (unconjugated protein)” value is 23%, the “1 linker (protein+linker)” value stood at 43%, the “+(1) H2O” value came to 26% and the “+(2) H2O” value came to 8%.

For the molecule B8, the “0 linker (unconjugated protein)” value came out at 18%, the “1 linker (protein+linker)” value turned out to be 47%, the “+(1) H2O” value came to 27% and the “+(2) H2O” value was found to be 8%.

On to B9, for which the “0 linker (unconjugated protein)” value is recorded as 20%, the “1 linker (protein+linker)” value turned out to be 46%, the “+(1) H2O” value was 27% and the “+(2) H2O” value was 7%.

For the molecule B10, the “0 linker (unconjugated protein)” value is 14%, the “1 linker (protein+linker)” value was 41%, the “+(1) H2O” value stood at 34% and the “+(2) H2O” value worked out at 11%.

The data set is the same for the next values; noted with them: +4° C., 72 hrs.
With B7, the “0 linker (unconjugated protein)” value was found to be 24%, the “1 linker (protein+linker)” value worked out at 37%, the “+(1) H2O” value is 32% and the “+(2) H2O” value is recorded as 8%.

B8: the “0 linker (unconjugated protein)” value is on record as 19%, the “1 linker (protein+linker)” value turned out to be 43%, the “+(1) H2O” value was found to be 30% and the “+(2) H2O” value is listed as 8%.

In the case of B9, the “0 linker (unconjugated protein)” value came to 21%, the “1 linker (protein+linker)” value is on record as 42%, the “+(1) H2O” value worked out at 30% and the “+(2) H2O” value came to 7%.

As to B10, the “0 linker (unconjugated protein)” value is 14%, the “1 linker (protein+linker)” value was found to be 40%, the “+(1) H2O” value is given as 35% and the “+(2) H2O” value is listed as 11%.

Still in this data set, the particulars now being: +4° C., 168 hrs.
Take B7: the “0 linker (unconjugated protein)” value came to 24%, the “1 linker (protein+linker)” value was determined as 40%, the “+(1) H2O” value was 29% and the “+(2) H2O” value amounted to 7%.

Consider B8, for which the “0 linker (unconjugated protein)” value was found to be 19%, the “1 linker (protein+linker)” value stood at 43%, the “+(1) H2O” value came to 29% and the “+(2) H2O” value amounted to 8%.

As to B9, the “0 linker (unconjugated protein)” value is 21%, the “1 linker (protein+linker)” value stood at 41%, the “+(1) H2O” value came to 32% and the “+(2) H2O” value was 6%.

As for B10, the “0 linker (unconjugated protein)” value was determined as 10%, the “1 linker (protein+linker)” value was 33%, the “+(1) H2O” value is given as 40% and the “+(2) H2O” value was determined as 18%.

Still in this data set, the particulars now being: +4° C., 336 hrs.
Consider B7, for which the “0 linker (unconjugated protein)” value is reported as 26%, the “1 linker (protein+linker)” value worked out at 38% and the “+(1) H2O” value is reported as 28%.

Take B8: the “0 linker (unconjugated protein)” value is 20%, the “1 linker (protein+linker)” value stood at 43% and the “+(1) H2O” value was 29%.

Consider B9, for which the “0 linker (unconjugated protein)” value was determined as 22%, the “1 linker (protein+linker)” value was found to be 41% and the “+(1) H2O” value came to 31%.

Regarding B10, the “0 linker (unconjugated protein)” value is given as 12%, the “1 linker (protein+linker)” value is given as 28% and the “+(1) H2O” value came out at 41%.

The data set is the same for the next values; noted with them: +4° C., 336 hrs (2 weeks).
On to B7, for which the “+(2) H2O” value was determined as 8%.

Consider B8, for which the “+(2) H2O” value was 8%.

Regarding B9, the “+(2) H2O” value stood at 6%.

B10: the “+(2) H2O” value amounted to 18%.
